Tests used:
[1] = tested on: tobacco cells containing a dexamethasone-inducible Cdc25 gene; conditions: auxin only
[2] = tested on: dexamethasone-inducible Cdc25 gene; test: Induction of Cdc25 mRNA and protein (northern and western blot); format: cell-based, N. plumbaginifolia; conditions: inducible cell lines; 12 h induction
Protocol: FIG. 1a is a copy of a photographic representation of a northern blot hybridisation showing the induction of Cdc25 mRNA in tobacco cells containing a dexamethasone-inducible Cdc25 gene, in the absence of exogenous cytokinin. […] Total RNA was extracted from tobacco cells either in the absence of added dexamethasone (lane 0), or after 12 h induction with […], or 0.10 μM, or 1.00 μM, or 10.00 μM dexamethasone and then loaded onto agarose gels (60 μg aliquots RNA per lane), transferred to membrane support and probed with a Cdc25-specific probe.
FIG. 1b is a copy of a photographic representation of a western blot showing the induction of p67^Cdc25 protein in tobacco cells containing a dexamethasone-inducible Cdc25 gene, in the absence of exogenous cytokinin. […] Total protein was extracted from tobacco cells either in the absence of added dexamethasone (lane 1), or after 12 h induction with 0.01 μM dexamethasone (Lane 2), or 0.10 μM dexamethasone (Lane 3), or 1.00 μM dexamethasone (Lane 4), or 10.00 µM dexamethasone (Lane 5) and then loaded onto SDS/polyacrylamide gels ([…] aliquots total soluble p67^cdc25 protein per lane), transferred to membrane support and probed with antibody specific for the Cdc25-specific probe. p67^Cdc25 was detected by western blot of 50 μg aliquots of total soluble p67^Cdc25 protein. […]

[3] = tested on: tobacco Cdc2 protein, designated Cdc2a
[4] = molecular target: tyrosine phosphorylated Cdc2 from arrested Cdc25-22 mutant fission yeast, P04551
[5] = molecular target: tobacco Cdc2 protein, designated Cdc2a; remark: listed apart in the source
plant Cdc2 enzyme = test: In vitro activation of plant Cdc2 histone kinase by GST-Cdc25; format: biochemical, tobacco
Excerpt: FIG. 2e is a graphical representation showing the change in activity of Cdc2 histone kinase in transgenic tobacco cells containing a dexamethasone-inducible Cdc25 gene, progressing from the late G2 phase hormonal control point into division and following their stimulation with cytokinin. The Cdc2 histone kinase was purified using p13^suc1 beads and treated with GST-Cdc25 fusion protein that had been produced in Escherichia coli cells.
Both Cdc2 and Cdc25 enzyme activities were extracted from tobacco cells, by grinding the cells in liquid nitrogen. For Cdc2 extraction, NDE buffer containing 25 mM HEPES (pH 7.2) with protease and phosphatase inhibitors was used. For Cdc25 extraction, PDE buffer, containing 25 mM MOPS (pH 7.2), 100 mM NaCl, 10 mM DTT, 5 mM EDTA, 1mM EGTA, 1% NP-40, 50 mM NaF, 0.5 mM PMSF, 3 μg ml^−1 leupeptin, and 20 μg ml^−1 aprotinin, was used.
To measure Cdc2 activity, the phosphorylation of H1 histone was followed.
We tested this by investigating whether Cdc25 enzyme could activate Cdc2 from cells in prophase and whether the extent of activation by Cdc25 declined when activation had already occurred in vivo. […] After 12 hours, Cdc2 activity declined during anaphase and the enzyme then became unresponsive to GST-Cdc25, consistent with the anaphase decline in activity being due to proteolysis of cyclin, as observed for cyclin 1b in maize mitosis.

tyrosine phosphorylated Cdc2 from arrested Cdc25-22 mutant fission yeast, P04551, sequence (P04551 whole entry, looked up, change not shown, tested part not stated): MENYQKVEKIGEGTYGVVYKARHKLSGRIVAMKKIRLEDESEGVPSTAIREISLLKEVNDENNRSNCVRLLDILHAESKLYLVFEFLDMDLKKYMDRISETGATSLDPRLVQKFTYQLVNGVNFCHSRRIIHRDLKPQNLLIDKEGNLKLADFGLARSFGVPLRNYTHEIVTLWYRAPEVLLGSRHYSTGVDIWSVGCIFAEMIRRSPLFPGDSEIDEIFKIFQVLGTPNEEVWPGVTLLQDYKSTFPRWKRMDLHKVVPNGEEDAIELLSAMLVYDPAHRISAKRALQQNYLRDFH

Molecule: C[C@@H]1C[C@H]2[C@@H]3CCC4=CC(=O)C=C[C@]4(C)[C@@]3(F)[C@@H](O)C[C@]2(C)[C@@]1(O)C(=O)CO [dexamethasone]
- dexamethasone concentration that induced division ([1]; cells arrested at G2 phase hormonal control point, no cytokinin, 12 h induction): 0.01 to 10 µM
- optimum concentration for induction of division ([1]; independent clones, G2-arrested cells): 0.1 µM
- concentration at which Cdc25 mRNA and protein accumulated [2]: 0.01 to 10 µM

Molecule: plant Cdc25 protein (67 kDa tobacco protein)
- Cdc2 histone kinase activity after incubation with immunoprecipitated Cdc25 [3]: non-transgenic plant cells also contain a Cdc25 activity, unambiguously of plant origin, that is both present following cytokinin stimulation and capable of activating plant Cdc2

B1: fission yeast Cdc25 phosphoprotein phosphatase expressed in transgenic tobacco cells (protein)
chain: MDSPLSSLSFTNTLSGKRNVLRPAARELKLMSDRNANQELDFFFPKSKHIASTLVDPFGKTCSTASPASSLAADMSMNMHIDESPALPTPRRTLFRSLSCTVETPLANKTIVSPLPESPSNDALTESYFFRQPASKYSITQDSPRVSSTIAYSFKPKASIALNTTKSEATRSSLSSSSFDSYLRPNVSRSRSSGNAPPFLRSRSSSSYSINKKKGTSGGQATRHLTYALSRTCSQSSNTTSLLESCLTDDTDDFELMSDHEDTFTMGKVADLPESSVELVEDAASIQRPNSDFGACNDNSLDDLFQASPIKPIDMLPKINKDIAFPSLKVRSPSPMAFAMQEDAEYDEQDTPVLRRTQSMFLNSTRLGLFKSQDLVCVTPKQSTKESERFISSHVEDLSLPCFAVKEDSLKRITQETLLGLLDGKFKDIFDKCIIIDCRFEYEYLGGHISTAVNLNTKQAIVDAFLSKPLTHRVALVFHCEHSAHRAPHLALHFRNTDRRMNSHRYPFLYYPEVYILHGGYKSFYENHKNRCDPINYVPMNDASHVMTCTKAMNNFKRNATFMRTKSYTFGQSVLASPDVNDSPTAMHSLSTLRRF
- activation of yeast Cdc2 H1 histone kinase (phosphorylation of H1 histone) [4]: appearance of Cdc25 activity, which was detected by its activation of yeast Cdc2 Hi histone kinase

B2: GST-Cdc25 catalytic core fusion protein synthesised in Escherichia coli (protein)
chain: SSHVEDLSLPCFAVKEDSLKRITQETLLGLLDGKFKDIFDKCIIIDCRFEYEYLGGHISTAVNLNTKQAIVDAFLSKPLTHRVALVFHCEHSAHRAPHLALHFRNTDRRMNSHRYPFLYYPEVYILHGGYKSFYENHKNRCDPINYVPMNDASHVMTCTKAMNNFKRNATFMRTKSYTFGQSVLASPDVNDSPTAMHSLSTLRRF
- Cdc2 histone kinase activity after treatment with GST-Cdc25 [5]: excess bacterially-synthesised GST-Cdc25 could activate plant Cdc2 enzyme that was extracted in prophase between 3 hours and 12 hours

B3: GST-Cdc25: recombinant GST-Cdc25 catalytic core fusion protein synthesised in Escherichia coli (protein)
chain: SSHVEDLSLPCFAVKEDSLKRITQETLLGLLDGKFKDIFDKCIIIDCRFEYEYLGGHISTAVNLNTKQAIVDAFLSKPLTHRVALVFHCEHSAHRAPHLALHFRNTDRRMNSHRYPFLYYPEVYILHGGYKSFYENHKNRCDPINYVPMNDASHVMTCTKAMNNFKRNATFMRTKSYTFGQSVLASPDVNDSPTAMHSLSTLRRF
modifications: left off: a dimerising Fc or GST
notes: recombinant GST-Cdc25 catalytic core fusion protein synthesised in Escherichia coli
- response of Cdc2 to GST-Cdc25 in anaphase (plant Cdc2 enzyme; Cdc2 extracted after 12 hours): unresponsive
- activation of plant Cdc2 enzyme (plant Cdc2 enzyme; excess bacterially-synthesised GST-Cdc25, Cdc2 extracted in prophase between 3 hours and 12 hours): could activate plant Cdc2 enzyme

Source: patent US20030172404A1, “Method of modifying plant characters by the targeted expression of a cell cycle control protein” (priority 1999, published 2003)
